Consider two substances from PMC9103930.

Assay [1] addresses Deinococcus grandis Dps tailless variant ∆N (lacking the first 46 residues) (Deinococcus grandis). Description: SEC + other: dynamic light scattering; Superdex 200 10/300 GL calibrated with protein standards, and DLS at 25 °C; 200 mM MOPS pH 7.0, 200 mM NaCl; WT also in 50 mM MOPS pH 7.0 with 50-480 mM NaCl; apparent molecular mass and hydrodynamic diameter of the oligomer.
The target is the same in assay [2]. Nature of the assay: SAXS; solution SAXS (batch and SEC-SAXS), 50 mM MOPS pH 7.0 with 50-480 mM NaCl (WT) or 50 and 230 mM NaCl (∆N); ab initio models (GASBOR, DAMMIN) with P23 symmetry set. (In gel filtration, larger molecules generally elute earlier.)
In assay [3] the target is Deinococcus grandis Dps, wild type (Deinococcus grandis). Described as above.

For the substance “Deinococcus grandis Dps tailless variant ∆N (lacking the first 46 residues) (from UniProt A0A100HLL5 47-205) (domain or fragment)”, the stoichiometry N in assay [1] and in assay [2] was 12 each time.
Take “Deinococcus grandis Dps, wild type (from UniProt A0A100HLL5 1-214) (natural protein)”: the stoichiometry N (as a rule, the number of molecules, sites or subunits per partner or assembly) in assay [3] stood at 12.
